Test results from publication doi:10.1101/580043 (bioRxiv, 2019).
Where no end group is shown, it is not given here.

T1: Recombinant full-length MBP-tagged PRG-1 (C. elegans, UniProt P90786 1-824)
T1 sequence (looked up): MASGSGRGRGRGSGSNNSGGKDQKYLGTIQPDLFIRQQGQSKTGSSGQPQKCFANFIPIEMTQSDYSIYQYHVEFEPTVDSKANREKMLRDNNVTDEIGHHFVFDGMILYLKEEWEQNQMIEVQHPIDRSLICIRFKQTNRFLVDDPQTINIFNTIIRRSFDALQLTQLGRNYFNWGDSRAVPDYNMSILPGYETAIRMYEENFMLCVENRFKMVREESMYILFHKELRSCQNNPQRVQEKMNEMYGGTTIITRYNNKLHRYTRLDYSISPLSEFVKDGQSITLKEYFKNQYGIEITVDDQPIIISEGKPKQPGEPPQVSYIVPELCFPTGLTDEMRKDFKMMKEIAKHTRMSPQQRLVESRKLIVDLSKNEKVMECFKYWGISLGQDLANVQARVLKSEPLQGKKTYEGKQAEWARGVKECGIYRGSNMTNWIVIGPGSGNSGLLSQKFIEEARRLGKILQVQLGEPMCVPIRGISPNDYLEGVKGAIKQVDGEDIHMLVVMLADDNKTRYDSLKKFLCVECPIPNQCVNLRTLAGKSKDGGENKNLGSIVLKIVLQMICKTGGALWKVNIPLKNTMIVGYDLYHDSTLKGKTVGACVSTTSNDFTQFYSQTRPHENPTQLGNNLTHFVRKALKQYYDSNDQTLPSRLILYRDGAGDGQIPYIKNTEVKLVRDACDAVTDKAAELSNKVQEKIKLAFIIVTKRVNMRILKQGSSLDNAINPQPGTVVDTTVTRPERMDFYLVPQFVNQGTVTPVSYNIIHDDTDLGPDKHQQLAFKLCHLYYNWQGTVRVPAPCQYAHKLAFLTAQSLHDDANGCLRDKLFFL


What was measured:
[1] = target: MBP-tagged PRG-1 PIWI domain (C. elegans); test: MST
[2] = target: T1, Recombinant full-length MBP-tagged PRG-1; test: MST

Row | Kd [1] [µM] | Kd [2] [µM] | Binder
1 | 1.9 | – | NFDNIEEAKNLERRSKIPLKFGEVILWNESDCDHDKRIIL (also: labelled with atto-488 NHS ester, site not given here) [DEPS-1 PBS motif peptide]
2 | – | 0.855 | Recombinant full-length MBP-tagged DEPS-1 (natural protein, C. elegans, UniProt Q9N303 1-619, looked up, labelled with atto-488 NHS ester) MSERQSKYFDYQGIVISSTGQDNQDSETDLVYLIQAHGKAAPKNIMYGVSKCAFVPTNLERNFDNIEEAKNLERRSKIPLKFGEVILWNESDCDHDKRIILHIKREKPIYEASSSRNGLILKVGGVIQPTSTTSFWTPLCTVTMPETEATRAEPDVWLYAWIRFETTMKSGLDPFNMTATFESFDSCDPSDQARVCEAPWNAGSPDSKFGVWRPDPKPADSDDEIDIEPREGWHLPEDKWAEVIKMQLGLYVGERLLICKELSQFDFIIPLQKPFSRGTDKTLIYPAVGEYFHFSAIWSMQHNGFLIYELQPVPLLRQHVTSVNGNLLTRVVPASIRGLFVDKEGTLGLIDDPHHLLSFFEFHPAGYEFLKAMAEVRAVRTSENKSVRYRIVRTSGMSIFENWLRDTQFVVGPVKGIRINEDTVICAKHPNVYFKIPNNLKEGIPIGGGVQFVGKRQAGVDSEIMITECSPCPAFTCKNYSVSGDTRLFQVYLKPNCDHEQLAESDSMGFVDFRELETPCRGKFLAWVRESITVNDCRRAATIMEVCSTAICPPLIAMSANSSRATSARTTPAGSSIGSRSSIQSRASAATSVSSNRFVGPSSRRTPSGTPQSSTSSRV
